Laboratory results reported in patent US20030229005A1.

Key:
Experiment in all cases: cell-based or functional assay
stromelysin 1 = stromelysin 1 (UniProt P08254)
collagenase 1 = collagenase 1 (UniProt P03956)
[1] = target: human Gelatinase-A (human) (UniProt P08253)
Sequence of human Gelatinase-A (human) (P08253 110-660 limits assumed): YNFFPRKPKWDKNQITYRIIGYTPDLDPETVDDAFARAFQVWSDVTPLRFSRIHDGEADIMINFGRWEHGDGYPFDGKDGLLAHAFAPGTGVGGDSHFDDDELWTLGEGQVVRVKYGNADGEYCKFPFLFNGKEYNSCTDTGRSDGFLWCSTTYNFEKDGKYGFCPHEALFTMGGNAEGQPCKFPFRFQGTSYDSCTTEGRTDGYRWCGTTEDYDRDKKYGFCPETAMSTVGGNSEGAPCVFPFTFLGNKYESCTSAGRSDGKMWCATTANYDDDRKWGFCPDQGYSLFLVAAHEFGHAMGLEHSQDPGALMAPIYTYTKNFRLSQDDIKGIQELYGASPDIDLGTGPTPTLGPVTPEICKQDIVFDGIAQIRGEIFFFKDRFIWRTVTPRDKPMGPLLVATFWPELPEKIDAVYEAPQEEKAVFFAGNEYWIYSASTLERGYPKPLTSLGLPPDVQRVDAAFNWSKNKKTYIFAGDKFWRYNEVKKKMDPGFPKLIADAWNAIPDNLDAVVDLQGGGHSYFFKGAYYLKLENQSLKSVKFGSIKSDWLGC

Sequence of stromelysin 1 (P08254 100-477 limits assumed): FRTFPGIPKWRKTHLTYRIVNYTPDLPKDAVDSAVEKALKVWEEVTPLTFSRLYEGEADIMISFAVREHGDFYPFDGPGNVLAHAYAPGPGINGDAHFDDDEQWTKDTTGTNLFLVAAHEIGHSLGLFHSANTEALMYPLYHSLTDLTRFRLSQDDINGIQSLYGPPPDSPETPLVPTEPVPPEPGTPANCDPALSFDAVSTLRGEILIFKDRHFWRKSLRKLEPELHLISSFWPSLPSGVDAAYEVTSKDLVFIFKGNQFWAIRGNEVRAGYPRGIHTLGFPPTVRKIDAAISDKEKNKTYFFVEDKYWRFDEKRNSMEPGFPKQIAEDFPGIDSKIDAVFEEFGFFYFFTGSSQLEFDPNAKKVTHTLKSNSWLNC
Sequence of collagenase 1 (P03956 100-469 limits assumed): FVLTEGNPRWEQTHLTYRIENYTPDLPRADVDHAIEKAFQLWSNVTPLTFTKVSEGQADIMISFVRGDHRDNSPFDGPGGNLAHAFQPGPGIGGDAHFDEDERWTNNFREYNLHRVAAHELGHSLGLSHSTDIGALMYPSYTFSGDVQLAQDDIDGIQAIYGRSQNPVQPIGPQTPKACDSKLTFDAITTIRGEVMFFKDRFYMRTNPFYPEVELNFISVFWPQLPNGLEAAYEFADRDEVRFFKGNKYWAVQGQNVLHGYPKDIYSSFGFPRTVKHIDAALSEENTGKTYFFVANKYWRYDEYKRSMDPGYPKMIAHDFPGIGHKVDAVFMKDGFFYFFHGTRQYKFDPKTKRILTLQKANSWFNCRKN

## bovine type II collagen (from UniProt P02459 182-1241)
Stromelysin 1
  Average Percent Inhibition from 1.1 to 6.6 Hours, Type II Collagen 0.18 ug/ml: 15%
  Average Percent Inhibition from 1.1 to 6.6 Hours, Type II Collagen 0.54 ug/ml: 13%
  Average Percent Inhibition from 1.1 to 6.6 Hours, Type II Collagen 1.63 ug/ml: 19%
  Average Percent Inhibition from 1.1 to 6.6 Hours, Type II Collagen 4.89 ug/ml: 12%
  Average Percent Inhibition from 1.1 to 6.6 Hours, Type II Collagen 14.67 ug/ml: 18%
  Average Percent Inhibition from 1.1 to 6.6 Hours, Type II Collagen 44.00 ug/ml: 19%
  Average Percent Inhibition, 0.10-1.10 h, TypeIICOL 1.6 ug/ul: -10%
  Average Percent Inhibition, 0.10-1.10 h, TypeIICOL 4.9 ug/ul: 50%
  Average Percent Inhibition, 0.10-1.10 h, TypeIICOL 15 ug/ul: 57%
  Average Percent Inhibition, 0.10-1.10 h, TypeIICOL 44 ug/ul: 62%
  Average Percent Inhibition, 0.10-1.10 h, TypeIICOL .18 ug/ul: 22%
  Average Percent Inhibition, 0.10-1.10 h, TypeIICOL .55 ug/ul: 43%
  Average Percent Inhibition, 1.10-2.10 h, TypeIICOL 1.6 ug/ul: 24%
  Average Percent Inhibition, 1.10-2.10 h, TypeIICOL 4.9 ug/ul: 23%
  Average Percent Inhibition, 1.10-2.10 h, TypeIICOL 15 ug/ul: 28%
  Average Percent Inhibition, 1.10-2.10 h, TypeIICOL 44 ug/ul: 32%
  Average Percent Inhibition, 1.10-2.10 h, TypeIICOL .18 ug/ul: 22%
  Average Percent Inhibition, 1.10-2.10 h, TypeIICOL .55 ug/ul: 26%
  Average Percent Inhibition, 2.10-3.10 h, TypeIICOL 1.6 ug/ul: 22%
  Average Percent Inhibition, 2.10-3.10 h, TypeIICOL 4.9 ug/ul: 11%
  Average Percent Inhibition, 2.10-3.10 h, TypeIICOL 15 ug/ul: 18%
  Average Percent Inhibition, 2.10-3.10 h, TypeIICOL 44 ug/ul: 18%
  Average Percent Inhibition, 2.10-3.10 h, TypeIICOL .18 ug/ul: 15%
  Average Percent Inhibition, 2.10-3.10 h, TypeIICOL .55 ug/ul: 14%
  Average Percent Inhibition, 3.10-4.10 h, TypeIICOL 1.6 ug/ul: 18%
  Average Percent Inhibition, 3.10-4.10 h, TypeIICOL 4.9 ug/ul: 8%
  Average Percent Inhibition, 3.10-4.10 h, TypeIICOL 15 ug/ul: 14%
  Average Percent Inhibition, 3.10-4.10 h, TypeIICOL 44 ug/ul: 14%
  Average Percent Inhibition, 3.10-4.10 h, TypeIICOL .18 ug/ul: 12%
  Average Percent Inhibition, 3.10-4.10 h, TypeIICOL .55 ug/ul: 10%
  Average Percent Inhibition, 4.10-5.10 h, TypeIICOL 1.6 ug/ul: 17%
  Average Percent Inhibition, 4.10-5.10 h, TypeIICOL 4.9 ug/ul: 8%
  Average Percent Inhibition, 4.10-5.10 h, TypeIICOL 15 ug/ul: 13%
  Average Percent Inhibition, 4.10-5.10 h, TypeIICOL 44 ug/ul: 14%
  Average Percent Inhibition, 4.10-5.10 h, TypeIICOL .18 ug/ul: 12%
  Average Percent Inhibition, 4.10-5.10 h, TypeIICOL .55 ug/ul: 8%
  Average Percent Inhibition, 5.10-6.10 h, TypeIICOL 1.6 ug/ul: 16%
  Average Percent Inhibition, 5.10-6.10 h, TypeIICOL 4.9 ug/ul: 8%
  Average Percent Inhibition, 5.10-6.10 h, TypeIICOL 15 ug/ul: 14%
  Average Percent Inhibition, 5.10-6.10 h, TypeIICOL 44 ug/ul: 14%
  Average Percent Inhibition, 5.10-6.10 h, TypeIICOL .18 ug/ul: 12%
  Average Percent Inhibition, 5.10-6.10 h, TypeIICOL .55 ug/ul: 8%
Collagenase 1
  Average Percent Inhibition from 1.1 to 6.6 Hours, Type II Collagen 0.18 ug/ml: 0%
  Average Percent Inhibition from 1.1 to 6.6 Hours, Type II Collagen 0.54 ug/ml: 3%
  Average Percent Inhibition from 1.1 to 6.6 Hours, Type II Collagen 1.63 ug/ml: 0%
  Average Percent Inhibition from 1.1 to 6.6 Hours, Type II Collagen 4.89 ug/ml: 2%
  Average Percent Inhibition from 1.1 to 6.6 Hours, Type II Collagen 14.67 ug/ml: 10%
  Average Percent Inhibition from 1.1 to 6.6 Hours, Type II Collagen 44.00 ug/ml: 15%
  Average Percent Inhibition, 0.10-1.10 h, TypeIICOL 1.6 ug/ul: 19%
  Average Percent Inhibition, 0.10-1.10 h, TypeIICOL 4.9 ug/ul: 37%
  Average Percent Inhibition, 0.10-1.10 h, TypeIICOL 15 ug/ul: 44%
  Average Percent Inhibition, 0.10-1.10 h, TypeIICOL 44 ug/ul: 50%
  Average Percent Inhibition, 0.10-1.10 h, TypeIICOL .18 ug/ul: 17%
  Average Percent Inhibition, 0.10-1.10 h, TypeIICOL .55 ug/ul: 15%
  Average Percent Inhibition, 1.10-2.10 h, TypeIICOL 1.6 ug/ul: 6%
  Average Percent Inhibition, 1.10-2.10 h, TypeIICOL 4.9 ug/ul: 13%
  Average Percent Inhibition, 1.10-2.10 h, TypeIICOL 15 ug/ul: 21%
  Average Percent Inhibition, 1.10-2.10 h, TypeIICOL 44 ug/ul: 29%
  Average Percent Inhibition, 1.10-2.10 h, TypeIICOL .18 ug/ul: 3%
  Average Percent Inhibition, 1.10-2.10 h, TypeIICOL .55 ug/ul: 6%
  Average Percent Inhibition, 2.10-3.10 h, TypeIICOL 1.6 ug/ul: 0%
  Average Percent Inhibition, 2.10-3.10 h, TypeIICOL 4.9 ug/ul: 3%
  Average Percent Inhibition, 2.10-3.10 h, TypeIICOL 15 ug/ul: 12%
  Average Percent Inhibition, 2.10-3.10 h, TypeIICOL 44 ug/ul: 18%
  Average Percent Inhibition, 2.10-3.10 h, TypeIICOL .18 ug/ul: 0%
  Average Percent Inhibition, 2.10-3.10 h, TypeIICOL .55 ug/ul: 3%
  Average Percent Inhibition, 3.10-4.10 h, TypeIICOL 1.6 ug/ul: -2%
  Average Percent Inhibition, 3.10-4.10 h, TypeIICOL 4.9 ug/ul: 0%
  Average Percent Inhibition, 3.10-4.10 h, TypeIICOL 15 ug/ul: 8%
  Average Percent Inhibition, 3.10-4.10 h, TypeIICOL 44 ug/ul: 12%
  Average Percent Inhibition, 3.10-4.10 h, TypeIICOL .18 ug/ul: -1%
  Average Percent Inhibition, 3.10-4.10 h, TypeIICOL .55 ug/ul: 2%
  Average Percent Inhibition, 4.10-5.10 h, TypeIICOL 1.6 ug/ul: -3%
  Average Percent Inhibition, 4.10-5.10 h, TypeIICOL 4.9 ug/ul: -2%
  Average Percent Inhibition, 4.10-5.10 h, TypeIICOL 15 ug/ul: 6%
  Average Percent Inhibition, 4.10-5.10 h, TypeIICOL 44 ug/ul: 9%
  Average Percent Inhibition, 4.10-5.10 h, TypeIICOL .18 ug/ul: -1%
  Average Percent Inhibition, 4.10-5.10 h, TypeIICOL .55 ug/ul: 1%
  Average Percent Inhibition, 5.10-6.10 h, TypeIICOL 1.6 ug/ul: -4%
  Average Percent Inhibition, 5.10-6.10 h, TypeIICOL 4.9 ug/ul: -4%
  Average Percent Inhibition, 5.10-6.10 h, TypeIICOL 15 ug/ul: 4%
  Average Percent Inhibition, 5.10-6.10 h, TypeIICOL 44 ug/ul: 7%
  Average Percent Inhibition, 5.10-6.10 h, TypeIICOL .18 ug/ul: -1%
  Average Percent Inhibition, 5.10-6.10 h, TypeIICOL .55 ug/ul: 1%
[1]
  Average Percent Inhibition from 1.1 to 6.6 Hours, Type II Collagen 0.18 ug/ml: 2%
  Average Percent Inhibition from 1.1 to 6.6 Hours, Type II Collagen 0.54 ug/ml: 6%
  Average Percent Inhibition from 1.1 to 6.6 Hours, Type II Collagen 1.63 ug/ml: -52%
  Average Percent Inhibition from 1.1 to 6.6 Hours, Type II Collagen 4.89 ug/ml: 32%
  Average Percent Inhibition from 1.1 to 6.6 Hours, Type II Collagen 14.67 ug/ml: 56%
  Average Percent Inhibition from 1.1 to 6.6 Hours, Type II Collagen 44.00 ug/ml: 83%
  Average Percent Inhibition, 0.10-1.10 h, TypeIICOL 1.6 ug/ul: -27%
  Average Percent Inhibition, 0.10-1.10 h, TypeIICOL 4.9 ug/ul: 37%
  Average Percent Inhibition, 0.10-1.10 h, TypeIICOL 15 ug/ul: 56%
  Average Percent Inhibition, 0.10-1.10 h, TypeIICOL 44 ug/ul: 58%
  Average Percent Inhibition, 0.10-1.10 h, TypeIICOL .18 ug/ul: 3%
  Average Percent Inhibition, 0.10-1.10 h, TypeIICOL .55 ug/ul: 2%
  Average Percent Inhibition, 1.10-2.10 h, TypeIICOL 1.6 ug/ul: 4%
  Average Percent Inhibition, 1.10-2.10 h, TypeIICOL 4.9 ug/ul: 43%
  Average Percent Inhibition, 1.10-2.10 h, TypeIICOL 15 ug/ul: 64%
  Average Percent Inhibition, 1.10-2.10 h, TypeIICOL 44 ug/ul: 78%
  Average Percent Inhibition, 1.10-2.10 h, TypeIICOL .18 ug/ul: 9%
  Average Percent Inhibition, 1.10-2.10 h, TypeIICOL .55 ug/ul: 11%
  Average Percent Inhibition, 2.10-3.10 h, TypeIICOL 1.6 ug/ul: -11%
  Average Percent Inhibition, 2.10-3.10 h, TypeIICOL 4.9 ug/ul: 46%
  Average Percent Inhibition, 2.10-3.10 h, TypeIICOL 15 ug/ul: 70%
